This assay has as its target T1, FLAG-tagged STAT1 (signal transducer and activator of transcription 1), P42224.
T1 chain: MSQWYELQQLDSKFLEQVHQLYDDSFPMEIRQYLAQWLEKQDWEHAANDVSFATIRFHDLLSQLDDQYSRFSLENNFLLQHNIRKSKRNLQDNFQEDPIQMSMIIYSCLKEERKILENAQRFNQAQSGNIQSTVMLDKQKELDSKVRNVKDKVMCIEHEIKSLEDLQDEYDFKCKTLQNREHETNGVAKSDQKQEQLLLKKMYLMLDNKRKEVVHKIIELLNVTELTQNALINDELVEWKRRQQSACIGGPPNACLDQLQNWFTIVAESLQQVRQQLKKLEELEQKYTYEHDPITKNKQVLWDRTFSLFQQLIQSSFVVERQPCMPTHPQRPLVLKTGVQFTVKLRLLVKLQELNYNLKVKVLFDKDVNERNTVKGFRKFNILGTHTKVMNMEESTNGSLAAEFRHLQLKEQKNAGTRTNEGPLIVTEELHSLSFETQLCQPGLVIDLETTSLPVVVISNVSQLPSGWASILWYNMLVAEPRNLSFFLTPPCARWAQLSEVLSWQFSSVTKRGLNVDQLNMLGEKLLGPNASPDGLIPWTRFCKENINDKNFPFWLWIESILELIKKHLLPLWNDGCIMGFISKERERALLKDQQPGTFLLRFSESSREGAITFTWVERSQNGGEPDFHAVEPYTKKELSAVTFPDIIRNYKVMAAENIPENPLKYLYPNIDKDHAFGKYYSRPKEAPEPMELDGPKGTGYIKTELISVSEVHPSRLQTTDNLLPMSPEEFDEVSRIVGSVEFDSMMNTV
The assay can be described thus: co-IP; anti-FLAG M2 immunoprecipitation (protein A/G PLUS agarose, 4°C) from soluble whole-cell extracts (500 μg protein) of co-transfected HEK293T cells, untreated or treated 1 h with 50 U/ml IFNγ; extraction and wash buffer with 280 mM NaCl, 0.5% NP-40, 50 mM Tris/HCl pH 7.4; quantitative blots with anti-GFP and anti-β-arrestin1; control IP without FLAG-tagged STAT1. Particulars: remark: other sources report otherwise.

The values below come from publication PMC3898874.

Values joined by “and” are separate entries in the source; they are usually repeats but may differ in a detail not shown here. Equal entries are not always repeated.

B1: FLAG-tagged STAT1 (signal transducer and activator of transcription 1), P42224 1-750 (natural protein)
chain: T1 chain
With B1, the fold stronger co-precipitation with FLAG-tagged STAT1 than β-arrestin1-GFP (signals normalised to inputs) was 3 fold and 6 fold.
